Earlier results, collected in PMC2774623.

Biological target: CK2 alpha (Homo sapiens) (UniProt P68400)
Assay: SPR

Chain of CK2 beta (P67870 2-215): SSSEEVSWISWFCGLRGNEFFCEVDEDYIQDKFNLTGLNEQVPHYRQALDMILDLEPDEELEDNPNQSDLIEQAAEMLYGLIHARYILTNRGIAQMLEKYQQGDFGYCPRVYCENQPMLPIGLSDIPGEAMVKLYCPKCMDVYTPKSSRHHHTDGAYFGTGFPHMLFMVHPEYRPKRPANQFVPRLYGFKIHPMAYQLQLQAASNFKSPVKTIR
Chain of CK2 alpha (Homo sapiens) (P68400 whole entry): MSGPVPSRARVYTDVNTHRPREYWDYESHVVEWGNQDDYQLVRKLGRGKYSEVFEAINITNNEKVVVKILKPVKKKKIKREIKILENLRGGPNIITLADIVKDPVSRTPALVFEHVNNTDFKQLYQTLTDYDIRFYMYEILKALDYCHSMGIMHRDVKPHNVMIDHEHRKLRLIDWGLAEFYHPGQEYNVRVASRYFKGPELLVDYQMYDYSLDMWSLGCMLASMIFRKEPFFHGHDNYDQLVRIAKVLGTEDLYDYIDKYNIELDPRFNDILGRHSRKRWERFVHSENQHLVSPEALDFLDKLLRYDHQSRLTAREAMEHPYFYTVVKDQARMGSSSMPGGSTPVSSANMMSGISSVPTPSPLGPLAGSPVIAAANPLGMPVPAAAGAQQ

## CK2 beta (from UniProt P67870)
  Kd: 40.8 nM
